Assays:
MMP12 = MMP12 activity assay (gelatin and casein zymography); assay type: cell-based, human; settings: Agrin silenced keratinocytes, increasing dose of sAgrin 24 h
Protocol: MMP12 activity were monitored via Gelatin and Casein zymography as per previously published protocols. Briefly, control or Agrin depleted HaCaT cells were grown till 80-90% confluency in media without FBS. Supernatants collected from each culture dish were spun down at 10,000 rpm for 5 min and concentrated using Amicon ultra columns. Twenty microliter of medium was mixed with 2×SDS loading buffer and loaded on 10% gelatin or casein gel. The gels were washed with incubation buffer and subsequently stained with Coomassie Brilliant Blue for 1 h. The gels were de-stained for 30 min before imaging using a Chemidoc imager.

[1] = tested on: primary mouse keratinocytes; assay: BrDu proliferation assay of mouse keratinocytes; assay type: cell-based; settings: increasing concentrations of sAgrin
Protocol: (a) The protein sequence of the C-terminal Agrin fragment used as bio-additive. Gel-filtration profile of purified sAgrin. The recombinant sAgrin were tested in a Coomassie stained gel and by Western blot using an Agrin antibody. (b) BrDu proliferation assay of mouse keratinocytes cells treated with increasing concentrations of sAgrin for the indicated days (n=3 experiments, Students ‘t’ test, **p=0.001 and *p=0.01, respectively). (c) HaCaT/mouse keratinocytes cells treated with increasing doses of sAgrin were subjected to scratch wound assay. Representative bright-field images are shown at indicated times post-wounding. Scale bar: 20 μm. The resulting uncovered wound area presented as mean+/−s.d. was quantified using ImageJ (n=3, Students ‘t’ test, *p<0.01). (d) Untreated or sAgrin (10 μg/ml) HaCaT cells were scratched and allowed to migrate for 4 h. […] The relative diameter of wounds presented as mean+/−s.d. was measured on indicated days and represented graphically from one experiment (n=3 mice per group, One-way ANOVA, *p<0.04, **p<0.004, respectively). […] The degree of proliferating cells were quantified using ImageJ (n=3 sections analyzed from two independent mice wounds, Students ‘t’ tests, *p=0.01). […] The quantification of individual types of collagen fibers were done using ImageJ (n=3 sections analyzed per group, Students ‘t’ test, *p=0.01 and 0.05, respectively).

mouse keratinocytes = assay: Cell stiffness by atomic force microscopy (AFM); assay type: cell-based
Protocol: The stiffness of the mouse keratinocyte cells was measured using a Nanowizard IV BioAFM system (JPK Instruments, Germany). Confluent mouse kerantinocyte monolayers were cultured on a petri dish in PBS media. The monolayers were scratched across the center of the petri dish using a 100 μl pipette tip and characterised after 4 hrs. Indentations were performed on randomly selected cells at the wound edge with a polystyrene bead of diameter (˜4.5 μm) attached to the end of a cantilever (k=0.03 N/m, Novascan Technologies, Inc., Ames, Iowa) using a force of 3 nN at 1 Hz. More than 60 cells from triplicate experiments were characterized and averaged to evaluate the Young's modulus for each condition. Young's modulus values were calculated using JPK Data Processing Software (JPK Instruments, Germany), which employs Hertz's contact model for spherical indenters (diameter 4.5 μm; Poisson's ratio 0.5) fitted to the extend curves.

B1: sAgrin: C-terminus recombinant Agrin fragment containing 8 amino acid 'Z8' insert and LG3 domain (SEQ ID NO: 7), His-tagged, expressed in E. coli (protein)
chain: DTLAFDGRTFVEYLNAVTESELANEIPVEKALQSNHFELSLRTEATQGLVLWSGKATERADYVALAIVDGHLQLSYNLGSQPVVLRSTVPVNTNRWLRVVAHREQREGSLQVGNEAPVTGSSPLGATQLDTDGALWLGGLPELPVGPALPKAYGTGFVGCLRDVVVGRHPLHLLEDAVTKPELRPCPTP
modifications: His tag
Question: For B1, which “MMP12 gelatin and casein degradation catalytic activity” value (MMP12) is on record?
Answer: Its value is “restored by sAgrin supplementation in a dose-dependent pattern”.

Question: And the “proliferation (BrDu incorporation)” value [1]?
Answer: Its value is “supported the proliferation of primary mouse keratinocytes”.

Question: And the “stiffness of migrating MMP12 knockdown keratinocytes” value (mouse keratinocytes; 4 h post-injury, sAgrin treatment)?
Answer: The value was “not restored by sAgrin treatment”.

Question: And the “stiffness of migrating keratinocytes” value (mouse keratinocytes; Agrin knockdown rescued with 10 μg/ml sAgrin, 4 h post-wound scratch, control ~2.1, knockdown ~0.9 KPa)?
Answer: The value was ~1.5 KPa.

From patent publication US20230257435A1, “Wound Healing Composition and Uses Thereof” (AGENCY FOR SCIENCE, TECHNOLOGY AND RESEARCH, priority 2020, published 2023)
